What was measured:
[1] = molecular target: T1, BLMcore G1120R (Homo sapiens, UniProt P54132 636-1298, G1120R); experiment: EMSA; 5 mM MgCl2; smear; estimated apparent KD; 50 mM Tris-HCl pH 7.5, 50 mM KCl, 5 mM MgCl2, 1 mM DTT, 0.1 mg/mL BSA, 40 nM DNA, 30 min room temperature; 5% gel in TBE + 100 mM KCl at 4 C; conditions: protein: recombinant, (HisTrap purified)
[2] = molecular target: T2, BLMcore P868L (Homo sapiens, UniProt P54132 636-1298, P868L); experiment: as above; conditions: protein: recombinant, (HisTrap purified)
[3] = molecular target: BLMcore K869A K870A (Homo sapiens, UniProt P54132 636-1298, K869A;K870A); experiment: as above; conditions: protein: recombinant, (HisTrap purified)
[4] = molecular target: T1, BLMcore G1120R; experiment: EMSA; 5 mM MgCl2; distinct shift; estimated apparent KD; 50 mM Tris-HCl pH 7.5, 50 mM KCl, 5 mM MgCl2, 1 mM DTT, 0.1 mg/mL BSA, 40 nM DNA, 30 min room temperature; 5% gel in TBE + 100 mM KCl at 4 C; conditions: protein: recombinant; (HisTrap purified); label: 3'-FAM on oAV320 (strand 2); 18 bp duplex, 3' overhang 39 nt on strand 1
[5] = molecular target: T2, BLMcore P868L; experiment: as above; conditions: protein: recombinant; (HisTrap purified); label: 3'-FAM on oAV320 (strand 2); 18 bp duplex, 3' overhang 39 nt on strand 1
[6] = label: 3'-FAM, intramolecular G4 (folded in 100 mM KCl) with 3' T-rich ssDNA tail

T1 sequence (P54132 636-1298 G1120R): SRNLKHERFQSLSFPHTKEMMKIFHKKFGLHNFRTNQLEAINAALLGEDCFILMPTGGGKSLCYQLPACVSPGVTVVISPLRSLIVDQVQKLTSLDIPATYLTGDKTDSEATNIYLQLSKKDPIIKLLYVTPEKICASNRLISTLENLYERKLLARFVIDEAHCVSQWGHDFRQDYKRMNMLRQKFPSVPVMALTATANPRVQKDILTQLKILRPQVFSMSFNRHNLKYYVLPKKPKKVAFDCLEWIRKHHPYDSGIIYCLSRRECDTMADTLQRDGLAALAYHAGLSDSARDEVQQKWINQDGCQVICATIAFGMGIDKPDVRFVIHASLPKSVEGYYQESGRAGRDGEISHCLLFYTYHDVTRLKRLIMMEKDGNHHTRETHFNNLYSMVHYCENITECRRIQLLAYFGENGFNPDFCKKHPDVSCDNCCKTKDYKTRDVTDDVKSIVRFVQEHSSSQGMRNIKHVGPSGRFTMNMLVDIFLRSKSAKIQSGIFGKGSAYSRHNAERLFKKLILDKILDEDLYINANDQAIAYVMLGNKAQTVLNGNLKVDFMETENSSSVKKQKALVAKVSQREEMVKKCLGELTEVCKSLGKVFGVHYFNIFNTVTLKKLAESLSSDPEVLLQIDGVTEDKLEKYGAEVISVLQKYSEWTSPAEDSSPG
T2 sequence (P54132 636-1298 P868L): as the sequence (P54132 636-1298 G1120R) above, with P233L, R485G counted along it
Sequence of BLMcore K869A K870A (P54132 636-1298 K869A/K870A): as the sequence (P54132 636-1298 G1120R) above, with K234A, K235A, R485G counted along it

For TTTTTTTTTTTTTTTTTTTTTTTTTTTTTT (ssDNA) [FAM-dT30 (ssDNA)], the Kd ([1]; single strand) was ~62.5 nM, the Kd ([2]; single strand) was ~62.5 nM and the Kd ([3]; single strand) was ~312 nM.

GGGTTAGGGTTAGGGTTAGGGTTTTTTTTTT (structured_DNA) [G4 DNA with 3' ssDNA overhang (FAM-oRC96)] showed a Kd [1, 6] of ~250 nM, a Kd [2, 6] of ~125 nM and a Kd [3, 6] of ~625 nM.

B1: partial dsDNA with 3' ssDNA overhang (oRC32/FAM-oAV320) (dsDNA)
DNA 1: TGGCGACGGCAGCGAGGCTTAGGGTTAGCGTTAGCGTTAGGGTTTTTTTTTTTTTTT
DNA 2: GCCTCGCTGCCGTCGCCA
B1 showed a Kd [4] of ~62.5 nM and a Kd [5] of ~62.5 nM.
